The target in the experiment is mouse PRLR on HEK293 cells (mouse) (UniProt Q08501). In words: FACS, HEK293/mPRLR cells.
Chain of mouse PRLR on HEK293 cells (mouse) (Q08501 20-608): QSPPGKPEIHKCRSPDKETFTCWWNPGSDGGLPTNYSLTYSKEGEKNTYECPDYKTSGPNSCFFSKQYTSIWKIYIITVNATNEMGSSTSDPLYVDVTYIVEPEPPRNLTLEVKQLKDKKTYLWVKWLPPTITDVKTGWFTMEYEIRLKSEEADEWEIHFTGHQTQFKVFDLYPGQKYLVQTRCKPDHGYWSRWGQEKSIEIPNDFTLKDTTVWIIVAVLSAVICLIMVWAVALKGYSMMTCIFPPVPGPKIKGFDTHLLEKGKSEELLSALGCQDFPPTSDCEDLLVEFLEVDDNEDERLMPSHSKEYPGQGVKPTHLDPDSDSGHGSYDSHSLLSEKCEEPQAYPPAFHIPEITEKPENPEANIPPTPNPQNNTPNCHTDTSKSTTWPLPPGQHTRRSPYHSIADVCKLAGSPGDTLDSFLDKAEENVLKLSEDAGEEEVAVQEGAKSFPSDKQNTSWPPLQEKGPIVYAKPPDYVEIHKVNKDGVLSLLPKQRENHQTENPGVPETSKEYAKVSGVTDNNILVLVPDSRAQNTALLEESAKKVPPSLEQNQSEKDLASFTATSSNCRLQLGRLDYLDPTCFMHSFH

Isotype Ctrl I (antibody) yielded an FACS Cell Binding (Fold Above Background) (fold above background) of 1.
